Experimental data taken from US20070089183A1, “Size and/or growth engineering by modulation of the interaction between calmodulin, and brassinosteroid biosynthetic enzymes and orthologs therof” (Washington State University, priority 2005, published 2007).

B1: DWF5: Arabidopsis DWF5 (AT1G50430), sterol Δ7 reductase (protein, listed as Arabidopsis thaliana)
chain: MAETVHSPIVTYASMLSLLAFCPPFVILLWYTMVHQDGSVTQTFGFFWENGVQGLINIWPRPTLIAWKIIFCYGAFEAILQLLLPGKRVEGPISPAGNRPVYKANGLAAYFVTLATYLGLWWFGIFNPAIVYDHLGEIFSALIFGSFIFCVLLYIKGHVAPSSSDSGSCGNLIIDFYWGMELYPRIGKSFDIKVFTNCRFGMMSWAVLAVTYCIKQYEINGKVSDSMLVNTILMLVYVTKFFWWEAGYWNTMDIAHDRAGFYICWGCLVWVPSVYTSPGMYLVNHPVELGTQLAIYILVAGILCIYINYDCDRQRQEFRRTNGKCLVWGRAPSKIVASYTTTSGETKTSLLLTSGWWGLARHFHYVPEILSAFFWTVPALFDNFLAYFYVIFLTLLLFDRAKRDDDRCRSKYGKYWKLYCEKVKYRIIPGIY
B2: DWF4: Arabidopsis brassinosteroid biosynthetic enzyme DWF4 (AT3G50660) (protein, listed as Arabidopsis thaliana)
chain: MFETEHHTLLPLLLLPSLLSLLLFLILLKRRNRKTRFNLPPGKSGWPFLGETIGYLKPYTATTLGDFMQQHVSKYGKIYRSNLFGEPTIVSADAGLNRFILQNEGRLFECSYPRSIGGILGKWSMLVLVGDMHRDMRSISLNFLSHARLRTILLKDVERHTLFVLDSWQQNSIFSAQDEAKKFTFNLMAKHIMSMDPGEEETEQLKKEYVTFMKGVVSAPLNLPGTAYHKALQSRATILKFIERKMEERKLDIKEEDQEEEEVKTEDEAEMSKSDHVRKQRTDDDLLGWVLKHSNLSTEQILDLILSLLFAGHETSSVAIALAIFFLQACPKAVEELREEHLEIARAKKELGESELNWDDYKKMDFTQCVINETLRLGNVVRFLHRKALKDVRYKGYDIPSGWKVLPVISAVHLDNSRYDQPNLFNPWRWQQQNNGASSSGSGSFSTWGNNYMPFGGGPRLCAGSELAKLEMAVFIHHLVLKFNWELAEDDQPFAFPFVDFPNGLPIRVSRIL
B3: CPD: Arabidopsis CPD (AT5G05690), cytochrome P450 90A1 (protein, listed as Arabidopsis thaliana)
chain: MAFTAFLLLLSSIAAGFLLLLRRTRYRRMGLPPGSLGLPLIGETFQLIGAYKTENPEPFIDERVARYGSVFMTHLFGEPTIFSADPETNRFVLQNEGKLFECSYPASICNLLGKHSLLLMKGSLHKRMHSLTMSFANSSIIKDHLMLDIDRLVRFNLDSWSSRVLLMEEAKKITFELTVKQLMSFDPGEWSESLRKEYLLVIEGFFSLPLPLFSTTYRKAIQARRKVAEALTVVVMKRREEEEEGAERKKDMLAALLAADDGFSDEEIVDFLVALLVAGYETTSTIMTLAVKFLTETPLALAQLKEEHEKIRAMKSDSYSLEWSDYKSMPFTQCVVNETLRVANIIGGVFRRAMTDVEIKGYKIPKGWKVFSSFRAVHLDPNHFKDARTFNPWRWQSNSVTTGPSNVFTPFGGGPRLCPGYELARVALSVFLHRLVTGFSWVPAEQDKLVFFPTTRTQKRYPIFVKRRDFAT

What follows are molecules tested on Ca^2+/CaM (assay: gel mobility shift assay of BR biosynthetic proteins). Conditions: FIG. 5.
Assay type: binding, potato
Text: PCM1: potato calmodulin 1; PCM6: potato calmodulin 6. Sequences of respective CaMBD are also shown: N-DWF4 (SEQ ID NO:18); C-DWF4 (SEQ ID NO:19); CPD (SEQ ID NO:17); and DWF5 (SEQ ID NO:20).
DWF1Ca^2+ is an important second messenger and an integral part of the cellular signalling system in plants^5,29. Applicants were thus prompted to survey the CaM-binding properties of other proteins involved in brassinosteroid biosynthesis.

Ca^2+/CaM binding, Ca^2+/CaM-binding proteins:
B1, B2, B3
